Measured values published in patent publication US8105802B2, “Method of producing microbial transglutaminase” (Ajinomoto Co., Inc., priority 2003, dated 2012).

Columns and labels:
[1] = system: SVP70; assay: Inhibitory activities of various compounds to SVP70 (cleavage of peptide GPSFRAPDS); type: biochemical, Streptoverticillium mobaraense; conditions: analogously to (3)-vi); concentrations shown in FIG. 5
Experimental: (§1) The enzyme solution was added to 20 mM sodium phosphate buffer containing peptide GPSFRAPDS (Peptide Institute) (SEQ ID NO: 11) to yield 170 μl of total liquid volume, and it was reacted at 30° C. for 10 minutes, followed by heating at 95° C. for 5 minutes to terminate the reaction. 80 μl of this solution was analyzed by HPLC under the following conditions and its activity was calculated based on the decreased amount of the substrate.
(§2) To 20 mM sodium phosphate buffer (pH 7.0) containing various compounds at the concentrations shown in FIG. 5, the purified enzyme solution was added and left for 60 minutes at room temperature. Then Gly-Pro-Ser-Phe-Arg-Ala-Pro-Asp-Ser (SEQ ID NO: 11) was added as a substrate and reacted for 10 minute at 30° C. The relative activity by adding each compound was calculated based on the Gly-Pro-Ser-Phe-Arg-Ala-Pro-Asp-Ser (SEQ ID NO: 11) cleavage activity in the absence of compounds as 100%.
The inhibitory activities of various compounds to SVP70 were examined analogously to (3)-vi).

[2] = system: SVP35; assay: Inhibitory activities of various compounds to SVP35 (cleavage of peptide GPSFRAPDS); type: biochemical, Streptoverticillium mobaraense; conditions: concentrations shown in FIG. 5; 60 minutes at room temperature, then substrate 10 minute at 30° C., pH 7.0
Experimental: as §1, §2

[3] = system: Gly-Pro-Ser-Phe-Arg-Ala-Pro-Asp-Ser (SEQ ID NO: 11); assay: Optimum pH of the protease (peptide cleavage in GTA buffer pH 3 to pH 10); type: biochemical
Experimental: as §1
In 0.15 M GTA buffer (buffered by 3,3-dimethyl glutaric acid, Tris (hydroxy methyl) amino methane, 2-amino-2-methyl-1,3-propanediol) from pH 3 to pH 10, SVP35 was allowed to act on Gly-Pro-Ser-Phe-Arg-Ala-Pro-Asp-Ser (SEQ ID NO: 11) as a substrate at 30° C. for 10 minutes.
The Optimum pH of SVP70 was examined similarly as (3)-ii).

[4] = system: Gly-Pro-Ser-Phe-Arg-Ala-Pro-Asp-Ser (SEQ ID NO: 11); assay: pH stability of the protease; type: physicochemical
Experimental: To 10 μl of SVP35 purified enzyme solution, 40 μl of each pH of 0.15 M GTA buffer from pH 3 to pH 10 was added, left at 4° C. overnight, followed by addition of 0.1 M sodium phosphate buffer (pH 7.0) to the liquid volume of 400 μl, and was adjusted to pH 7.0. To these enzyme solutions, Gly-Pro-Ser-Phe-Arg-Ala-Pro-Asp-Ser (SEQ ID NO: 11) was added as a substrate, and reacted at pH 7.0, at 30° C. for 10 minutes.
The pH stability was examined similarly to (3)-iii).

[5] = system: Gly-Pro-Ser-Phe-Arg-Ala-Pro-Asp-Ser (SEQ ID NO: 11); assay: Optimum temperature of the protease; type: biochemical
Experimental: To the purified enzyme solution diluted with 20 mM Tris-HCl buffer (pH 7.5) containing 5 mM calcium chloride and 0.01 mM zinc chloride Gly-Pro-Ser-Phe-Arg-Ala-Pro-Asp-Ser (SEQ ID NO: 11) was added and reacted at pH 7.0, between 5° C. and 65° C. for 10 minutes. As a result, it was shown that the Optimum temperature of SVP35 was about 45° C. and it had high activity within the range of 40° C. to 50° C.
The Optimum temperature of SVP70 was examined similarly as (3)-iv). As a result, it was shown that the Optimum temperature of SVP70 was within the range from about 50° C. to 55° C., especially around 55° C. (see FIG. 3).

[6] = system: Gly-Pro-Ser-Phe-Arg-Ala-Pro-Asp-Ser (SEQ ID NO: 11); assay: Temperature stability of the protease; type: physicochemical; conditions: 15 minutes; activity treated at 4° C. defined as 100%
Experimental: To 10 μl of the purified enzyme solution, 40 μl of 20 mM Tris-HCl buffer (pH 7.5) containing 5 mM calcium chloride and 0.01 mM zinc chloride was added to treat at 4° C. or at from 30° C. to 70° C. for 15 minutes, and then cooled by ice, added 250 μl of 20 mM sodium phosphate buffer (pH 7.0). To this enzyme solution, Gly-Pro-Ser-Phe-Arg-Ala-Pro-Asp-Ser (SEQ ID NO: 11) was added as a substrate and reacted at 30° C. for 5 minutes. When the activity treated at 4° C. was defined as 100%, the remaining activity at each temperature was calculated. […] (see FIG. 4).

[7] = system: insulin B and pro-MTG; assay: Substrate specificity (cleavage points, HPLC and sequencing of fragments); type: biochemical; conditions: 30° C., 2 hours, pH 7.5
Experimental: 1 mg/ml of insulin B solution and pro-MTG solution prepared in 20 mM Tris-HCl buffer (pH 7.5) containing 5 mM calcium chloride and 0.01 mM zinc chloride was used as a substrate, and an enzyme solution was added to the solution to react at 30° C. for 2 hours, and then peptide fragments were separated by HPLC under the following conditions:
The amino acid sequences of the obtained peptide fragments were analyzed by PPSQ-10 (Shimadzu Co. Ltd.) to characterize the sequences of the cleavage points for SVP35.
The substrate specificity was examined similarly as described in (3)-i).

[8] = system: pro-MTG; assay: Conversion of pro-MTG into active MTG, substrate:enzyme 200:1 (SDS-PAGE, hydroxamate method); type: biochemical, Streptoverticillium mobaraense; conditions: substrate:enzyme=200:1, 30° C.
Experimental: Using pro-MTG (1 mg/ml) expressed by Corynebacterium glutamicum as a purified substrate, the neutral protease (SVP35, SVP70) from Streptoverticillium mobaraense or the neutral metalloprotease SGMP II from Streptomyces griseus was mixed in the ratio of the substrate:the enzyme=200:1, the mixture was reacted at 30° C. After 0, 1, 2, 4, 7, 20 hours, the reaction mixture was sequentially picked up, and the aliquots of the reaction mixture were mixed with SDS-PAGE sample buffer and heated at 95° C. for 3 minutes, and then subjected to SDS-PAGE according to Laemmli's method (Nature, 227, 680-685 (1970)). […] In addition, SGMP II was purified from actinase (Kakenseiyaku Co. Ltd.) according to the reference method (J. Biocem., Vol. 110, p. 339-344, 1991).

[9] = activity at pH 7.0 defined as 100%

## O[C@H](CS)[C@H](O)CS (racemic) [dithiothreitol]
[1]
  inhibition of SVP70 activity: strong inhibitory action

## c1cnc2c(c1)ccc1cccnc12 [1,10-phenanthroline]
[2]
  inhibition of SVP35 Gly-Pro-Ser-Phe-Arg-Ala-Pro-Asp-Ser cleavage activity: strongly inhibited
[1]
  inhibition of SVP70 activity: strong inhibitory action

## O=C(O)CN(CCN(CC(=O)O)CC(=O)O)CC(=O)O [ethylene diamine tetraacetic acid]
[2]
  inhibition of SVP35 Gly-Pro-Ser-Phe-Arg-Ala-Pro-Asp-Ser cleavage activity: strongly inhibited
[1]
  inhibition of SVP70 activity: strong inhibitory action

## CC(C)C[C@H](NP(=O)(O)O[C@@H]1O[C@@H](C)[C@H](O)[C@@H](O)[C@H]1O)C(=O)N[C@@H](Cc1c[nH]c2ccccc12)C(=O)O [phosphoramidon]
[2]
  inhibition of SVP35 Gly-Pro-Ser-Phe-Arg-Ala-Pro-Asp-Ser cleavage activity: strongly inhibited
[1]
  inhibition of SVP70 activity: strong inhibitory action

## NC(N)=O [urea]
[1]
  inhibition of SVP70 activity: strong inhibitory action

B1: Streptomyces subtilisin inhibitor (SSI): Streptomyces subtilisin inhibitor derived from actinomycetes (protein)
chain: DAPSALYAPSALVLTVGKGVSATTAAPERAVTLTCAPGPSGTHPAAGSACADLAAVGGDLNALTRGEDVMCPMVYDPVLLTVDGVWQGKRVSYERVFSNECEMNAHGSSVFAF
[2]
  inhibition of SVP35 Gly-Pro-Ser-Phe-Arg-Ala-Pro-Asp-Ser cleavage activity: strongly inhibited
[1]
  inhibition of SVP70 activity: strong inhibitory action

B2: SVP35: neutral metalloprotease of about 35,000 from the cell surface of Streptoverticillium mobaraense IFO13819 (SEQ ID NO: 6) (protein)
chain: VLRLTATPRTTALRAAALVASAAMVVVGVQTGSASASGDRDSGGLPLTLSASQRTAAIQEAQSGASATAAKIGLSGKEKLIARDVVKDADGTVHTRYERTYDGLPVLGGDLIVHEAKAGRSVTKANDATIALPSTDASLAPAAAKKSALSAAADQKTAKADGQAPRKVVWAAQGKPVLAYETVVTGVQKDGTPSELHVITDAASGKKLYQYEAIETGTGTSTYSGTVPLTTTKSGSQYQLNDGARGGHKTYDLNQGTSGTGSLFTNSTDTWGGGRQTAGVDAHYGAAVTWDFYKNVFGRNGIRNDGKAAYSRVHYGNSYVNAFWSDSCFCMTYGDGQNNKNPLTALDVAAHEMSHGVTAATAKLVYSGESGGLNEATSDIFGTAVEFYANNKTDVGDYLIGEKINIYGDGKPLRYMDKPSKDGKSKDSWYSGIGGVDVHYSSGPANHFFYLLSEGSGKKTINGVDYDSPTADGSKVTGIGRDKAQKIWYKALTTQFTSNTNYAKARTGTLNAAASLYGNNSAEYKAVAAAWSAINVK
modifications: Streptoverticillium mobaraense
[3]; 0.15 M GTA buffer pH 3 to pH 10, 30° C., 10 minutes
  Optimum pH: around 7.0
[3]; [9]
  activity at pH 6.0-8.0: ≥ 70%
  activity at pH 6.5-7.5: ≥ 80%
[4]; activity at pH 4.0 defined as 100%
  activity after treatment at pH 4-10: ≥ 90%
[4]; left at 4° C. overnight at each pH, then reacted at pH 7.0, 30° C., 10 minutes
  pH Stability (stable pH range): 4-10
[5]; pH 7.0, 10 minutes
  activity within 40° C. to 50° C. relative to that at 45° C.: ≥ 80%
[5]; pH 7.0, between 5° C. and 65° C., 10 minutes
  Optimum temperature: about 45 °C
[6]
  remaining activity after treatment at 50° C.: 80%
  remaining activity after treatment at 60° C.: lost its activity
[7]
  amino acids recognized at the cleavage site: aromatic amino acids and hydrophobic amino acids with bulky side-chains positioned at P′ 1
  cleavage points (residue before which the substrate is cleaved): especially Phe, often Leu, sometimes Tyr, Trp, Ile, Val
[8]
  transglutaminase (TG) activity of the picked up fraction, hydroxamate method: sufficient activity was confirmed
[8]; 0-20 hours
  conversion of pro-MTG to the mature form (SDS-PAGE): converted to the mature forms
[8]; up to 20 hours
  reduction of produced MTG after long-term reaction: not reduced even after a long-term reaction
